The source of these data is patent US20260137822A1.

For orientation: EC50 means the concentration at which the effect is half-maximal. As a reminder, the EC50 (read off the curve) is the concentration that produces a half-maximal response. Low readings indicate an effect from little substance, high ones a need for much substance. One may read the Kd as a measure of binding affinity in units of concentration. For orientation: koff means the rate constant with which the complex falls apart. One may read the kon as a measure of how fast the partners come together.

The target of one test is FOLR1 on OVCAR3 cells (UniProt P15328). In words: cell binding to FOLR1-positive OVCAR3 cells.
Test [1] has as its target human FOLR1 (recombinant antigen) (human) (UniProt P15328). In words: ELISA on hFOLR1. On the technique in general: ELISA stands for enzyme-linked immunosorbent assay.
The target in test [2] is FOLR1 on cells (OVCAR3, OV-90) (UniProt P15328). In words: flow cytometry on FOLR1 expressing OV-90 cells, Geomeans RL1-H against Conc (nM) [top panel]. (Flow cytometry measures light scatter and fluorescence of single cells or particles in a stream.)
In test [3] the target is human FOLR1 (recombinant antigen) (human) (UniProt P15328). The experiment in a line: BLI (Octet), construct captured on AHC biosensor, hFOLR1 as analyte.
human FOLR1 (recombinant antigen) (human), sequence (P15328 25-234 limits assumed): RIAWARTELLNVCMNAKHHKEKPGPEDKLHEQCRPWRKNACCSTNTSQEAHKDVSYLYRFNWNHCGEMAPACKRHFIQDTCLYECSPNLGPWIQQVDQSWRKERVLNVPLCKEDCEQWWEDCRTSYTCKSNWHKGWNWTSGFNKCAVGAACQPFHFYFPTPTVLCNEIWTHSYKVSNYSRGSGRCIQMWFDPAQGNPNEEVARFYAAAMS

FOLR1 on OVCAR3 cells, sequence (P15328 25-234): as the sequence (P15328 25-234 limits assumed) above
FOLR1 on cells (OVCAR3, OV-90), sequence (P15328 25-234): as the sequence (P15328 25-234 limits assumed) above

B1: Farletuzumab (antibody, INN chains, looked up, V domains shown)
VH: EVQLVESGGGVVQPGRSLRLSCSASGFTFSGYGLSWVRQAPGKGLEWVAMISSGGSYTYYADSVKGRFAISRDNAKNTLFLQMDSLRPEDTGVYFCARHGDDPAWFAYWGQGTPVTVSS
VL: DIQLTQSPSSLSASVGDRVTITCSVSSSISSNNLHWYQQKPGKAPKPWIYGTSNLASGVPSRFSGSGSGTDYTFTISSLQPEDIATYYCQQWSSYPYMYTFGQGTKVEIKR
B1: the EC50 in the test with FOLR1 on OVCAR3 cells was 0.71 nM; in test [1], 0.12 nM. The same molecule showed an EC50 (read off the curve) in test [2] of 2 nM.

B2: Anti-FOLR1x4 GGSx3 (monospecific tetravalent VHH-VHH-Fc) (antibody, part only; not given: hinge and wild-type Fc, not shown: a dimerising Fc or GST)
chain, part: QVQLVESGGGLVQPGGSLRLSCAASGFTVSNSVMAWYRQTPGNEREFVAIINSIGITNYADSVKGRFTISRDNSKNTLYLQMNSLRAEDTAVYVCNRNFDRIYWGQGTLVTVSSGGSGGSGGSQVQLVESGGGLVQPGGSLRLSCAASGFTVSNSVMAWYRQTPGNEREFVAIINSIGITNYADSVKGRFTISRDNSKNTLYLQMNSLRAEDTAVYVCNRNFDRIYWGQGTLVTVSS
Take B2: the EC50 with FOLR1 on OVCAR3 cells amounted to 0.49 nM. In test [1], the EC50 worked out at 0.11 nM. Moreover, in test [3], the Kd amounted to 2.52 nM, the koff stood at 0.00087 s⁻¹ and the kon is 345000 M⁻¹ s⁻¹.

B3: Anti-FOLR1x4 GGGGSx3 (monospecific tetravalent VHH-VHH-Fc) (antibody, part only; not given: hinge and wild-type Fc, not shown: a dimerising Fc or GST)
chain, part: QVQLVESGGGLVQPGGSLRLSCAASGFTVSNSVMAWYRQTPGNEREFVAIINSIGITNYADSVKGRFTISRDNSKNTLYLQMNSLRAEDTAVYVCNRNFDRIYWGQGTLVTVSSGGGGSGGGGSGGGGSQVQLVESGGGLVQPGGSLRLSCAASGFTVSNSVMAWYRQTPGNEREFVAIINSIGITNYADSVKGRFTISRDNSKNTLYLQMNSLRAEDTAVYVCNRNFDRIYWGQGTLVTVSS
Molecule B3 gave an EC50 with FOLR1 on OVCAR3 cells of 0.28 nM. Moreover, the EC50 in test [1] worked out at 0.12 nM. In test [3], the Kd was 2.86 nM, the koff worked out at 0.000953 s⁻¹ and the kon was 333000 M⁻¹ s⁻¹.

B4: Anti-FOLR1x4 GGSx4 (monospecific tetravalent VHH-VHH-Fc) (antibody, part only; not given: hinge and wild-type Fc, not shown: a dimerising Fc or GST)
chain, part: QVQLVESGGGLVQPGGSLRLSCAASGFTVSNSVMAWYRQTPGNEREFVAIINSIGITNYADSVKGRFTISRDNSKNTLYLQMNSLRAEDTAVYVCNRNFDRIYWGQGTLVTVSSGGSGGSGGSGGSQVQLVESGGGLVQPGGSLRLSCAASGFTVSNSVMAWYRQTPGNEREFVAIINSIGITNYADSVKGRFTISRDNSKNTLYLQMNSLRAEDTAVYVCNRNFDRIYWGQGTLVTVSS
For the molecule B4, the EC50 in the test with FOLR1 on OVCAR3 cells worked out at 0.81 nM. Further, the EC50 in test [1] was found to be 0.14 nM. For the same molecule, in test [3], the Kd came out at 2.85 nM, the koff stood at 0.000853 s⁻¹ and the kon amounted to 299000 M⁻¹ s⁻¹.
